Measurements reported in patent US20210285024.

Tests used:
[1] = biological target: human tubulin purified from HEK293 cells
[2] = biological target: tubulin purified from Spodoptera Frugiperda Sf9 cells (fully tyrosinated; used as purified tubulin or polymerised microtubules)

B1: recombinant SVBP-VASH2 complex (protein)
chain 1: not shown
chain 2: MDPPARKEKTKVKESVSRVEKAKQKSAQQELKQRQRAEIYALNRVMTELEQQQFDEFCKQMQPPGE
detyrosination assay (western blot, relative optical density detyrosination/tubulin) [1]: the fold induction of the tubulin detyrosination resulting from SVBP-VASH2 complex was significantly lower with human tubulin purified from HEK293 cells in comparison to the one obtained using Sf9 cells extracted tubulin | detyrosination assay (western blot, relative optical density detyrosination/tubulin) [2]: SVBP-VASH2 complex strongly induced detyrosination in the assay
